The record followed here is the DeepSol protein solubility set.

This data set is described as follows: soluble on expression in E. coli; label from the status in PepcDB or PDB records.
In the case of “PSGFPQNLHVTGLTTSTTELAWDPPVLAERNGRIISYTVVFRDINSQQELQNITTDTRFTLTGLKPDTTYDIKVRAWTSKGSGPLSPSIQSRTMPV”, the “soluble on expression in E. coli” value was “soluble”.

As to “PSIKSAIQGKPVNPLNVSPTRLPILTADEKEFDVKIIVTGDRNQLADLEYVDEDFSTGLTMYTEVEEDIHLSASNLELYVGLVNWICSEYGFPSLDDGAFQRLLLAGMRLTEDQH”, the “soluble on expression in E. coli” value is reported as “not soluble”.

With “PSPQSLDGKNLNFDQQLVIFESENCEFCAQFDRDILAHWQADIPMVATKNTNPPADWTLDKPLFAAPTIVLFREGKEVVRYTGYTGEKENFWQWL”, the “soluble on expression in E. coli” value is given as “not soluble”.

As for “PTAQQLQLTTLDGKPFDPAGLKGKWLLGVADQAACPESCARKLFITRNSHASQGKNVDRVQRVWFITDDGEVPQKVLDAYRGTLMLRARPEQLGRYLLGQDAAAPAALLGPMWVIDPLGNLMLQFPPDVDGVKVRKDISRLLYNSR”, the “soluble on expression in E. coli” value was “not soluble”.

“PTSSTTATLVMGDALAVALLKARGFTAEDFALSHPGGALGRKLLLRVNDIMHTGDEIPHVKKTASLRDALLEVTRKNLGMTVICDDNMMIEGIFTDGDLRRVFDMGVDVRRLSIADVMTPGGIRVRPGILAVEALNLMQSRHITSVMVADGDHLLGVLHMHDLLRA”: the “soluble on expression in E. coli” value is reported as “not soluble”.

On to “PTTRGYGETRGIVKENGLHTVCEEAGCPNIGECWDKKHATFMIMGDTCTRACAFCNVKTGMPGALDANEPAYVAEATRKLGLQHLVITSVDRDDLADGGAAHFAATIRAVREACPTTTIEILTPDFLRKDGALEVVVAAKPDVFNHNLETVPSRYLSVRPGARYFHSIRLLQRVKELDPSIFTKSGIMVGLGEERHEVLQVMDDLRSAEVDFLTIGQYLQPTRKHHAVMRYVTPDEFAGYQTTAYAKGFLMVSASPMTRSSHHAGDDFAKLKAA”, for which the “soluble on expression in E. coli” value was “not soluble”.

Take “QDIAADIAPERVSNDPLVNLGEAVVEEEEKVGALEDLFMETKQDGVNTDDPIAHLKFSMQREDDYLIRDVEKPEPAPAKTIENTRQVVDDSFSIHSEFDIPNLIPEDWLGGVATSKESVEPAAEQAKQAAFIPEDFAHTKPVSPQASVVQPDVNQPQQPQYEAPLSHATSNVTQRAEPVSQKWEEVTQAFVPSAQPTQPETKAKEAQQGFVSNESLAIESVAHSSDIGKAFYEGLGISNPDLISNEALLFKQMGACLRLCIDNLQKDLHEVESLKGEQGLSEADSNLAELMLTLNSQNLLSPNELVEQMLDELNDHQIIFNKALNELLIEQSETNDPVMFANDVASKSMFTTKSKLWGEYLEFYANNRRQMNETSLKGLIKKNYTKAIKGSHA”: the “soluble on expression in E. coli” value is listed as “not soluble”.

For “QDSKVFDPFLAAITPEIMPVKGKLAEKALPLIDQQLQGQPGSTVLLVSDGVNPATIKQYQAYFAGKPYQLLILAAGNTDIVSNNPMDLDSLQKLASQTNGRLVEVTVDNSDIEQLNRYVERNMQLNGESSMPWKD”, the “soluble on expression in E. coli” value is “not soluble”.

Take “QGAVRKATAAEIAALPRQKVELVDPPFVHAHSQVAEGGPKVVEFTMVIEEKKIVIDDAGTEVHAMAFNGTVPGPLMVVHQDDYLELTLINPETNTLMHNIDFHAATGALGGGGLTEINPGEKTILRFKATKPGVFVYHCAPPGMVPWHVVSGENGAIMVLPREGLHDGKGKALTYDKIYYVGEQDFYVPRDENGKYKKYEAPGDAYEDTVKVMRTLTPTHVVFNGAVGALTGDKAMTAAVGEKVLIVHSQANRDTRPHLIGGHGDYVWATGKFNTPPDVDQETWFIPGGAAGAAFYTFQQPGIYAYVNHNLIEAFELGAAAHFKVTGEWNDDLMTSVLAPSGT”: the “soluble on expression in E. coli” value is “soluble”.

“QGVDQSPKPLIIGPEEDYDPGYFNNESDIIFQDLEKLKSRPAHLGVFLRYIFSQADPSPLLFYLCAEVYQQASPKDSRSLGKDIWNIFLEKNAPLRVKIPEMLQAEIDSRLRNSEDARGVLCEAQEAAMPEIQEQIHDYRTKRTLGLGSLYGENDLLDLDGDPLRERQVAEKQLAALGDILSAYAADRSAPMDFALNTYMSHAGIRLREA”: the “soluble on expression in E. coli” value is on record as “soluble”.

In the case of “QIDYMTNSDMGYDYRNKLIIDVFGLDPQIVSTMRTEIAKIPGITGIGLTRGTPLNGGNNNSSEYRGRPLSMQIFSIDSVALSLFDLKMKPNGRKADKPDRTLYLSRSAYNDFDVANLPDGVIHWGKAGEFYYCGDAPEVHFGGFKEPHPSYLFIPYPQSSAWSWSVLVGYSEGADPEQLIQSIQAVYSRITGQPYTEILRSEDIIASHSEEERSLS”, the “soluble on expression in E. coli” value is on record as “not soluble”.
